Series [1] deals with xUpZnK (upstream Sld2-like region + Zn knuckle) (Xenopus laevis). In words: EMSA. To be noted: 20 mM Tris-HCl pH 7.5, 2 mM MgCl2, 50 mM NaCl, 5% glycerol, 1 mM DTT, 5 mM ZnCl2, 0.1 mg/ml BSA, 10 nM probe, 30 min room temperature; 6% native gel in TBE at …. A general note: A gel shift assay detects complexes by their altered migration in electrophoresis.
The target in series [2] is T1, hUpZnK (upstream Sld2-like region + Zn knuckle) (human) (UniProt O94761).
T1 sequence: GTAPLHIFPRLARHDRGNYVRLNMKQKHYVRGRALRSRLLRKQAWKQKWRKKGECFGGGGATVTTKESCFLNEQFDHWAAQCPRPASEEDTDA
In words: EMSA. To be noted: 20 mM Tris-HCl pH 7.5, 2 mM MgCl2, 50 mM NaCl, 5% glycerol, 1 mM DTT, 5 mM ZnCl2, 0.1 mg/ml BSA, 10 nM probe, 30 min room temperature; 6% native gel in TBE at ….

Series [3] addresses T2, hZnK (RecQ4 Zn knuckle) (human, UniProt O94761 394-427).
T2 chain: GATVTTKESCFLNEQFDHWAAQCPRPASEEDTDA
The experiment in a line: EMSA. To be noted: 20 mM Tris-HCl pH 7.5, 2 mM MgCl2, 50 mM NaCl, 5% glycerol, 1 mM DTT, 5 mM ZnCl2, 0.1 mg/ml BSA, 10 nM probe, 30 min room temperature; 6% native gel in TBE at ….

For series [4], the target named is T3, hUpZnK (upstream Sld2-like region + Zn knuckle) (human, UniProt O94761 335-427).
T3 sequence: T1 sequence
The experiment in a line: EMSA; 5 mM ZnCl2, 2 mM Mg2+; 20 mM Tris-HCl pH 7.5, 2 mM MgCl2, 50 mM NaCl, 5% glycerol, 1 mM DTT, 5 mM ZnCl2, 0.1 mg/ml BSA, 10 nM probe, 30 min room temperature; 6% native gel in TBE at 4 C. To be noted: protein: recombinant, tags: N-terminal 6His-GST (not cleaved), label: 5'-32P on one strand, fork.

The target of series [5] is T2, hZnK (RecQ4 Zn knuckle). The description is as above. The following applies: protein: recombinant, tags: N-terminal 6His-GST (not cleaved), label: 5'-32P on one strand, fork.
The target of series [6] is T3, hUpZnK (upstream Sld2-like region + Zn …). The experiment in a line: EMSA; 20 mM Tris-HCl pH 7.5, 2 mM MgCl2, 50 mM NaCl, 5% glycerol, 1 mM DTT, 5 mM ZnCl2, 0.1 mg/ml BSA, 10 nM probe, 30 min room temperature; 6% native gel in TBE at 4 C. The following applies: protein: recombinant; tags: N-terminal 6His-GST (not cleaved); label: 5'-32P on one strand; blunt.
Series [7] concerns the target T2, hZnK (RecQ4 Zn knuckle). Described as above. To be noted: protein: recombinant; tags: N-terminal 6His-GST (not cleaved); label: 5'-32P on one strand; blunt.
Setting [8] is: 22 bp plus 15 nt unpaired T arms (3' arm of A1, 5' arm of A2).
Where [9] appears, read: 22 bp plus 15 nt unpaired U arms (3' arm of A3, 5' arm of A4).

The term Kd denotes the constant that tells how readily two partners part at equilibrium. Take “GTAGTGCATGTACACCACACTCTTTTTTTTTTTTTTT / TTTTTTTTTTTTTTTGAGTGTGGTGTACATGCACTAC [forkDNA (A1+A2)]”: the Kd in series [1] was 0.014 µM.
On the same count and under the same terms, to “GUAGUGCAUGUACACCACACUCUUUUUUUUUUUUUUU / UUUUUUUUUUUUUUUGAGUGUGGUGUACAUGCACUAC [forkRNA (A3+A4)]” belongs 0.0054 µM.
Take ssDNA: the figures for the Kd (in series [1]; in series [2]; with hZnK (RecQ4 Zn knuckle) [3]) were 0.025 µM, 0.185 µM and 0.5 µM, respectively.
Regarding ssRNA, the values for the Kd (in series [1]; in series [2]; in the series with hZnK (RecQ4 Zn knuckle) [3]) were 0.0073 µM, 0.011 µM and 0.22 µM, respectively.

B1: forkDNA (A1+A2) (dsDNA)
DNA 1: GTAGTGCATGTACACCACACTCTTTTTTTTTTTTTTT
DNA 2: TTTTTTTTTTTTTTTGAGTGTGGTGTACATGCACTAC
For B1, the figures for the Kd (in series [4] (setting [8]); with hZnK (RecQ4 Zn knuckle) [5] (setting [8])) were 0.042 ± 0.0028 µM and roughly 0.27 µM, respectively.

B2: forkRNA (A3+A4) (dsRNA)
RNA 1: GUAGUGCAUGUACACCACACUCUUUUUUUUUUUUUUU
RNA 2: UUUUUUUUUUUUUUUGAGUGUGGUGUACAUGCACUAC
On to B2, for which the Kd in series [4] (setting [9]) is 0.013 ± 0.0011 µM; with hZnK (RecQ4 Zn knuckle) [5] (setting [9]), roughly 0.13 µM.

B3: 22 bp dsDNA (annealed region of fork) (dsDNA)
DNA 1: GTAGTGCATGTACACCACACTC
DNA 2: GAGTGTGGTGTACATGCACTAC
In the case of B3, the binding result (in series [6]; with hZnK (RecQ4 Zn knuckle) [7]) was “no binding” each time.

The record behind these values is paper PMC4757822, “Structural and biochemical characterization of an RNA/DNA binding motif in the N-terminal domain of RecQ4 helicases”.
